“And” between values parts separate entries of the source, which are not always exact repeats. Equal entries are not always repeated.
Target: the molecule itself
Experiment: SEC; Superose 6 Increase 10/300 GL, 50 mM HEPES-NaOH pH 7.5, 150 mM NaCl, 5 mM DTT, 10% glycerol, 0.05% DDM, 0.01% CHS, 4 °C; more concentrated injected sample (about 300 uL); sizes by comparison with five standard proteins; monomer to tetramer

B1: full-length human particulate guanylyl cyclase A receptor (pGC-A) (receptor, UniProt P16066 33-1061, looked up)
chain: GNLTVAVVLPLANTSYPWSWARVGPAVELALAQVKARPDLLPGWTVRTVLGSSENALGVCSDTAAPLAAVDLKWEHNPAVFLGPGCVYAAAPVGRFTAHWRVPLLTAGAPALGFGVKDEYALTTRAGPSYAKLGDFVAALHRRLGWERQALMLYAYRPGDEEHCFFLVEGLFMRVRDRLNITVDHLEFAEDDLSHYTRLLRTMPRKGRVIYICSSPDAFRTLMLLALEAGLCGEDYVFFHLDIFGQSLQGGQGPAPRRPWERGDGQDVSARQAFQAAKIITYKDPDNPEYLEFLKQLKHLAYEQFNFTMEDGLVNTIPASFHDGLLLYIQAVTETLAHGGTVTDGENITQRMWNRSFQGVTGYLKIDSSGDRETDFSLWDMDPENGAFRVVLNYNGTSQELVAVSGRKLNWPLGYPPPDIPKCGFDNEDPACNQDHLSTLEVLALVGSLSLLGILIVSFFIYRKMQLEKELASELWRVRWEDVEPSSLERHLRSAGSRLTLSGRGSNYGSLLTTEGQFQVFAKTAYYKGNLVAVKRVNRKRIELTRKVLFELKHMRDVQNEHLTRFVGACTDPPNICILTEYCPRGSLQDILENESITLDWMFRYSLTNDIVKGMLFLHNGAICSHGNLKSSNCVVDGRFVLKITDYGLESFRDLDPEQGHTVYAKKLWTAPELLRMASPPVRGSQAGDVYSFGIILQEIALRSGVFHVEGLDLSPKEIIERVTRGEQPPFRPSLALQSHLEELGLLMQRCWAEDPQERPPFQQIRLTLRKFNRENSSNILDNLLSRMEQYANNLEELVEERTQAYLEEKRKAEALLYQILPHSVAEQLKRGETVQAEAFDSVTIYFSDIVGFTALSAESTPMQVVTLLNDLYTCFDAVIDNFDVYKVETIGDAYMVVSGLPVRNGRLHACEVARMALALLDAVRSFRIRHRPQEQLRLRIGIHTGPVCAGVVGLKMPRYCLFGDTVNTASRMESNGEALKIHLSSETKAVLEEFGGFELELRGDVEMKGKGKVRTYWLLGERGSSTRG
notes: transmembrane domain at residues 474-495; no TEV cleavage step is described; Found as monomer and as tetramer, depending on protein concentration; also called Particulate Guanylyl Cyclase Receptor A; natriuretic peptide receptor A; source: also on whole transfected Sf9 cells
stoichiometry N: 4 and 2

Source: PMC9276669, “Purification, characterization, and preliminary serial crystallography diffraction advances structure determination of full-length human particulate guanylyl cyclase A receptor” (Scientific Reports, 2022)
